The text below walks through data of patent publication US20250376529A1 (Amgen, published 2025).

The target in this assay is T1, Rhesus GIPR (rhesus, UniProt F7E1R9 22-466).
T1 sequence: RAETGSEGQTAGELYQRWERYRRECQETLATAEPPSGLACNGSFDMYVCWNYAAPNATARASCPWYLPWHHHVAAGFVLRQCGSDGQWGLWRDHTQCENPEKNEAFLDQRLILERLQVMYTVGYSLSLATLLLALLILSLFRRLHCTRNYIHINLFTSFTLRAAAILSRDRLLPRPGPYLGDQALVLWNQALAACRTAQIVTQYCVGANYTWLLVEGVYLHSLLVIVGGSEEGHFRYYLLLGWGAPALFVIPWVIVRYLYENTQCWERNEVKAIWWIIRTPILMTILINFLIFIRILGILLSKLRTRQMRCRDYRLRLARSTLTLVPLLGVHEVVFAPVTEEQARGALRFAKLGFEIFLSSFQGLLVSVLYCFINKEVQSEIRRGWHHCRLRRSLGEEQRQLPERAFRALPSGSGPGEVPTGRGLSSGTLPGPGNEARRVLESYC
In words: cell-based or functional assay.

B1: 18F2.012 (antibody, human IgG1, kappa, N297G, V domains shown)
VH: not shown
VL: DIQMTQSPSSLSASIGDRVTITCRASQDLRNYLGWYQQKPGKAPKLLIYGASSLQSGVPSRFSGSGSGTEFTLTISSLQPEDFATYYCLQHNNYPFTFGPGTKVDIKR
With B1, the “Rhesus GIPR CAMP Assay (Conc. mAb @ 60% Inhibition in nM)” value came to 1.88 nM.

B2: 4H9.004.001 (antibody, human IgG1, kappa, N297G)
heavy: not shown
light: DIQMTQSPSSLSASVGDRVTITCRASQGIRNELGWYQQKPGKAPKLLIYGASSLQSGVPSRFSGSGSGTEFTLTISSLQPEDFVTYYCLQHNSYPFTFGQGTKVDVKRTVAAPSVFIFPPSDEQLKSGTASVVCLLNNFYPREAKVQWKVDNALQSGNSQESVTEQDSKDSTYSLSSTLTLSKADYEKHKVYACEVTHQGLSSPVTKSFNRGEC
Take B2: the “Rhesus GIPR CAMP Assay (Conc. mAb @ 60% Inhibition in nM)” value was determined as 0.43 nM.

B3: 6H1.008 (antibody, human IgG1, kappa, N297G, V domains shown)
VH: not shown
VL: DIQMTQSPSSLSASIGDRVTITCRASQDIRDYLGWYQQKPGKAPKLLIYGASSLQSGVPSRFSGSGSGTEFTLTISSLQPEDFATYYCLQHNNYPFTFGPGTKVDIKR
Take B3: the “Rhesus GIPR CAMP Assay (Conc. mAb @ 60% Inhibition in nM)” value stood at 0.44 nM.

B4: 18F2.006 (antibody, human IgG1, kappa, N297G, V domains shown)
VH: QVQLVESGGGVVQPGRSLRLSCAASGFTFSNFGMHWVRQAPGKGLEWVAVIWYDASNENYADAVKGRFTISRDNSKNTLYLHMNSLRAADTAVYYCARDGTIFGVVLGDYWGQGTLVTVSS
VL: DIQMTQSPSSLSASIGDRVTITCRASQDLRNYLGWYQQKPGKAPKRLIYGASSLQSGVPSRFSGSGSGTEFTLTISSLQPEDFATYYCLQHNNYPFTFGPGTKVDIKR
As for B4, the “Rhesus GIPR CAMP Assay (Conc. mAb @ 60% Inhibition in nM)” value came out at 0.52 nM.

B5: 6H1.007 (antibody, human IgG1, kappa, N297G, V domains shown)
VH: QVQLVESGGGVVQPGRSLRLSCAASGFTFSYFGMHWVRQAPGKGLEWVAVIWYDASNKYYADSVKGRFTISRDNSKNTLYLQMNSLRAEDTAVYYCARDGTIFGVLLGDYWGQGTLVTVSS
VL: DIQMTQSPSSLSASIGDRVTITCRASQDIRDYLGWYQQKPGKAPKLLIYGASSLQSGVPSRFSGSGSGTEFTLTISSLQPEDFATYYCLQHNNYPFTFGPGTKVDIKR
With B5, the “Rhesus GIPR CAMP Assay (Conc. mAb @ 60% Inhibition in nM)” value came out at 0.55 nM.

B6: 4B1.016 (antibody, human IgG1, kappa, N297G, V domains shown)
VH: not shown
VL: DIQMTQSPSSLSASIGDRVTITCRASQDIRDYLGWYQQKPGKAPKLLIYGASSLQSGVPSRFSGSGSGTEFTLTISSLQPEDFATYYCLQHNNYPFTFGQGTKVDIKR
B6: the “Rhesus GIPR CAMP Assay (Conc. mAb @ 60% Inhibition in nM)” value was 1.57 nM.

B7: 6H1.004 (antibody, human IgG1, kappa, N297G, V domains shown)
VH: not shown
VL: DIQMTQSPSSLSASIGDRVTITCRASQDIRDYLGWYQQKPGKAPKLLIYGASSLQSGVPSRFSGSGSGTEFTLTISSLQPEDFATYYCLQHNNYPFTFGQGTKVDIKR
notes: also called iPS:359873; iPS:359875
For B7, the “Rhesus GIPR CAMP Assay (Conc. mAb @ 60% Inhibition in nM)” value was 0.79 nM.

B8: 4B1.013 (antibody, human IgG1, kappa, N297G, V domains shown)
VH: QVQLVESGGGVVQPGRSLRLSCAASGFTFSNFGMHWVRQAPGKGLEWVAVIWYDASNENYADSVKGRFTISRDNSKNTLYLHMNSLRVADTAVYYCARDGTIFGVVLGDYWGQGTLVTVSS
VL: DIQMTQSPSSLSASIGDRVTITCRASQDIRDYLGWYQQKPGKAPKLLIYGASSLQSGVPSRFSGSGSGTEFTLTISSLQPEDFATYYCLQHNNYPFTFGQGTKVDIKR
With B8, the “Rhesus GIPR CAMP Assay (Conc. mAb @ 60% Inhibition in nM)” value was 1.35 nM.

B9: 4B1 (antibody, human IgG1, kappa, N297G, V domains shown)
VH: QVQLVESGGGVVQPGRSLRLSCAASGFTFSNFGMHWVRQAPGKGLEWVAVIWYDGSNENYADSVKGRFTISRDNSKNTLYLHMNSLRVADTAVYYCARDGTIFGVVLGDYWGQGTLVTVSS
VL: DIQMTQSPSSLSASIGDRVTITCRASQDIRDYLGWYQQKPGKAPKRLIYGASSLQSGVPSRFSGSGSGTEFTLTISSLQPEDFATYYCLQHNNYPFTFGPGTKVDIKR
On to B9, for which the “Rhesus GIPR CAMP Assay (Conc. mAb @ 60% Inhibition in nM)” value was determined as 0.67 nM.

B10: 4B1.014 (antibody, human IgG1, kappa, N297G, V domains shown)
VH: QVQLVESGGGVVQPGRSLRLSCAASGFTFSNFGMHWVRQAPGKGLEWVAVIWYDGSNENYADAVKGRFTISRDNSKNTLYLHMNSLRVADTAVYYCARDGTIFGVVLGDYWGQGTLVTVSS
VL: DIQMTQSPSSLSASIGDRVTITCRASQDIRDYLGWYQQKPGKAPKLLIYGASSLQSGVPSRFSGSGSGTEFTLTISSLQPEDFATYYCLQHNNYPFTFGQGTKVDIKR
For the molecule B10, the “Rhesus GIPR CAMP Assay (Conc. mAb @ 60% Inhibition in nM)” value turned out to be 0.95 nM.

B11: 18F2.004 (antibody, human IgG1, kappa, N297G, V domains shown)
VH: not shown
VL: DIQMTQSPSSLSASIGDRVTITCRASQDLRNYLGWYHQKPGKAPKLLIYGASSLQSGVPSRFSGSGSGTEFTLTISSLQPEDFATYYCLQHNNYPFTFGPGTKVDIKR
B11: the “Rhesus GIPR CAMP Assay (Conc. mAb @ 60% Inhibition in nM)” value turned out to be 2.72 nM.

B12: 18F2.007 (antibody, human IgG1, kappa, N297G, V domains shown)
VH: QVQLVESGGGVVQPGRSLRLSCAASGFTFSNFGMHWVRQAPGKGLEWVAVIWYDASNENYADAVKGRFTISRDNSKNTLYLHMNSLRAADTAVYYCARDGTIFGVVLGDYWGQGTLVTVSS
VL: DIQMTQSPSSLSASIGDRVTITCRASQDLRNYLGWYHQKPGKAPKLLIYGASSLQSGVPSRFSGSGSGTEFTLTISSLQPEDFATYYCLQHNNYPFTFGPGTKVDIKR
For B12, the “Rhesus GIPR CAMP Assay (Conc. mAb @ 60% Inhibition in nM)” value came to 1.94 nM.

B13: 18F2 (antibody, human IgG1, kappa, N297G, V domains shown)
VH: QVQLVESGGGVVQPGRSLRLSCAASGFTFSNFGMHWVRQAPGKGLEWVAVIWYDGSNENYADSVKGRFTISRDNSKNTLYLHMNSLRAADTAVYYCARDGTIFGVVLGDYWGQGTLVTVSS
VL: DIQMTQSPSSLSASIGDRVTITCRASQDLRNYLGWYHQKPGKAPKRLIYGASSLQSGVPSRFSGSGSGTEFTLTISSLQPEDFATYYCLQHNNYPFTFGPGTKVDIKR
For B13, the “Rhesus GIPR CAMP Assay (Conc. mAb @ 60% Inhibition in nM)” value was 0.8 nM.

B14: 6H1.006 (antibody, human IgG1, kappa, N297G, V domains shown)
VH: QVQLVESGGGVVQPGRSLRLSCAASGFTFSYFGMHWVRQAPGKGLEWVAVIWYDGSNKYYADSVKGRFTISRDNSKNTLYLQMNSLRAEDTAVYYCARDGTIFGVLLGDYWGQGTLVTVSS
VL: DIQMTQSPSSLSASIGDRVTITCRASQDIRDYLGWYQQKPGKAPKLLIYGASSLQSGVPSRFSGSGSGTEFTLTISSLQPEDFATYYCLQHNNYPFTFGPGTKVDIKR
B14: the “Rhesus GIPR CAMP Assay (Conc. mAb @ 60% Inhibition in nM)” value was 0.47 nM.

B15: 4B1.015 (antibody, human IgG1, kappa, N297G, V domains shown)
VH: not shown
VL: DIQMTQSPSSLSASIGDRVTITCRASQDIRDYLGWYQQKPGKAPKLLIYGASSLQSGVPSRFSGSGSGTEFTLTISSLQPEDFATYYCLQHNNYPFTFGQGTKVDIKR
Regarding B15, the “Rhesus GIPR CAMP Assay (Conc. mAb @ 60% Inhibition in nM)” value stood at 0.84 nM.

B16: 4B1.011 (antibody, human IgG1, kappa, N297G, V domains shown)
VH: not shown
VL: DIQMTQSPSSLSASIGDRVTITCRASQDIRDYLGWYQQKPGKAPKRLIYGASSLQSGVPSRFSGSGSGTEFTLTISSLQPEDFATYYCLQHNNYPFTFGQGTKVDIKR
B16: the “Rhesus GIPR CAMP Assay (Conc. mAb @ 60% Inhibition in nM)” value turned out to be 0.51 nM.

B17: 18F2.008 (antibody, human IgG1, kappa, N297G, V domains shown)
VH: not shown
VL: DIQMTQSPSSLSASIGDRVTITCRASQDLRNYLGWYHQKPGKAPKRLIYGASSLQSGVPSRFSGSGSGTEFTLTISSLQPEDFATYYCLQHNNYPFTFGPGTKVDIKR
Take B17: the “Rhesus GIPR CAMP Assay (Conc. mAb @ 60% Inhibition in nM)” value was 1.76 nM.

B18: 6H1.002 (antibody, human IgG1, kappa, N297G, V domains shown)
VH: not shown
VL: DIQMTQSPSSLSASIGDRVTITCRASQDIRDYLGWYQQKPGKAPKRLIYGASSLQSGVPSRFSGSGSGTEFTLTISSLQPEDFATYYCLQHNNYPFTFGPGTKVDIKR
On to B18, for which the “Rhesus GIPR CAMP Assay (Conc. mAb @ 60% Inhibition in nM)” value is 0.31 nM.

B19: 6H1.009 (antibody, human IgG1, kappa, N297G)
heavy: not shown
light: DIQMTQSPSSLSASIGDRVTITCRASQDIRDYLGWYQQKPGKAPKRLIYGASSLQSGVPSRFSGSGSGTEFTLTISSLQPEDFATYYCLQHNNYPFTFGQGTKVDIKRTVAAPSVFIFPPSDEQLKSGTASVVCLLNNFYPREAKVQWKVDNALQSGNSQESVTEQDSKDSTYSLSSTLTLSKADYEKHKVYACEVTHQGLSSPVTKSFNRGEC
Consider B19, for which the “Rhesus GIPR CAMP Assay (Conc. mAb @ 60% Inhibition in nM)” value was found to be 0.15 nM.

B20: 6H1.005 (antibody, human IgG1, kappa, N297G, V domains shown)
VH: not shown
VL: DIQMTQSPSSLSASIGDRVTITCRASQDIRDYLGWYQQKPGKAPKLLIYGASSLQSGVPSRFSGSGSGTEFTLTISSLQPEDFATYYCLQHNNYPFTFGQGTKVDIKR
For the molecule B20, the “Rhesus GIPR CAMP Assay (Conc. mAb @ 60% Inhibition in nM)” value amounted to 0.49 nM.

B21: 4H9.004.004 (antibody, human IgG1, kappa, N297G)
heavy: not shown
light: DIQMTQSPSSLSASVGDRVTITCRASQGIRNELGWYQQKPGKAPKLLIYGASSLQSGVPSRFSGSGSGTEFTLTISSLQPEDFVTYYCLQHNSYPFTFGPGTKVDVKRTVAAPSVFIFPPSDEQLKSGTASVVCLLNNFYPREAKVQWKVDNALQSGNSQESVTEQDSKDSTYSLSSTLTLSKADYEKHKVYACEVTHQGLSSPVTKSFNRGEC
As for B21, the “Rhesus GIPR CAMP Assay (Conc. mAb @ 60% Inhibition in nM)” value came to 0.44 nM.

B22: 18F2.005 (antibody, human IgG1, kappa, N297G, V domains shown)
VH: not shown
VL: DIQMTQSPSSLSASIGDRVTITCRASQDLRNYLGWYQQKPGKAPKRLIYGASSLQSGVPSRFSGSGSGTEFTLTISSLQPEDFATYYCLQHNNYPFTFGPGTKVDIKR
Regarding B22, the “Rhesus GIPR CAMP Assay (Conc. mAb @ 60% Inhibition in nM)” value was determined as 1.13 nM.

B23: 18F2.002 (antibody, human IgG1, kappa, N297G, V domains shown)
VH: not shown
VL: DIQMTQSPSSLSASIGDRVTITCRASQDLRNYLGWYQQKPGKAPKLLIYGASSLQSGVPSRFSGSGSGTEFTLTISSLQPEDFATYYCLQHNNYPFTFGPGTKVDIKR
In the case of B23, the “Rhesus GIPR CAMP Assay (Conc. mAb @ 60% Inhibition in nM)” value came to 2.23 nM.

B24: 18F2.003 (antibody, human IgG1, kappa, N297G, V domains shown)
VH: QVQLVESGGGVVQPGRSLRLSCAASGFTFSNFGMHWVRQAPGKGLEWVAVIWYDASNENYADAVKGRFTISRDNSKNTLYLHMNSLRAADTAVYYCARDGTIFGVVLGDYWGQGTLVTVSS
VL: DIQMTQSPSSLSASIGDRVTITCRASQDLRNYLGWYQQKPGKAPKLLIYGASSLQSGVPSRFSGSGSGTEFTLTISSLQPEDFATYYCLQHNNYPFTFGPGTKVDIKR
For B24, the “Rhesus GIPR CAMP Assay (Conc. mAb @ 60% Inhibition in nM)” value worked out at 2.01 nM.
